Experimental findings from article PMC4571279 (Nature Communications, 2015) are described below.

Experiment [1] addresses T1, MERS-CoV Eng1 receptor-binding domain (RBD) (MERS-CoV Eng1, UniProt K9N5Q8).
T1 construct: source: GnTi-/- cells, purified (Ni-NTA, size exclusion chromatography in 1x PBS)
Nature of the experiment: crystal structure. As to conditions: both partners purified.

For experiment [2], the target named is T2, recombinant MERS-CoV S1 protein (MERS-CoV, isolate EMC/2012 (strain of …, UniProt K0BRG7)).
T2 construct: source: bought: Sino Biological Inc
In words: ELISA. As to conditions: both partners purified.

T1 sequence (K9N5Q8 367-601): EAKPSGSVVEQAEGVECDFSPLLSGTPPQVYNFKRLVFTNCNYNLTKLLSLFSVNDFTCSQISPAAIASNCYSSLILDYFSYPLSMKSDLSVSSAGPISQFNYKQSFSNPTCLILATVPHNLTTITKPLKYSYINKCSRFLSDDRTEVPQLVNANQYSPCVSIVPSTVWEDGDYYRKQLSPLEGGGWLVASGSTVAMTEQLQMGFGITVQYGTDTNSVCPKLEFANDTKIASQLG

B1: Fab m336 (antigen-binding fragment of antibody m336, prepared by Lys-C digestion) (Fab, V domains shown)
VH: QVQLVQSGAEVKKPGSSVKVSCKASGGTFSSYAISWVRQAPGQGLEWMGGIIPIFGTASYAQKFQGRVTITADKSTSTAYMELSSLRSEDTAVYYCARVGYCSSTSCNRGAFDIWGQGTMVTVSS
VL: DIQLTQSPSSLSASVGDRVTITCRASQGIRNDLGWYQQKPGKAPKLLIYAASSLQSGVPSRFSGSGSGTDFTLTISSLQPEDFATYYCQQLNSYPLTFGGGTKVEIK
notes: also called m336 Fab
As for B1, the binding result in experiment [1] is reported as “binds”.

B2: Fab m336 (from the m336 Fab-expressing plasmid), wild type (Fab, V domains shown)
VH: B1 VH
VL: B1 VL
notes: also called wild-type m336
B2: the binding result in experiment [2] is “binds”.

B3: IgG1 m336 (antibody, V domains shown)
VH: B1 VH
VL: B1 VL
notes: IgG1; also called wild-type m336; copies: 2 + 2
Turning to B3, the binding result in experiment [2] is reported as “binds”.
